Measured values published in patent EP3338799A1 (AlderBio Holdings LLC, dated 2018).

Tests used:
Experiment in all cases: surface plasmon resonance, 25 °C
human IL-6 = target: T1, human IL-6 (human, UniProt P05231 30-212)
T1 construct: also called huIL-6; hIL-6

cynomolgus monkey IL-6 = target: T2, cynomolgus monkey IL-6 (cynomolgus monkey, UniProt P79341 28-212, limits assumed)
T2 construct: also called IL-6 of cynomolgus monkey
T2 sequence (looked up): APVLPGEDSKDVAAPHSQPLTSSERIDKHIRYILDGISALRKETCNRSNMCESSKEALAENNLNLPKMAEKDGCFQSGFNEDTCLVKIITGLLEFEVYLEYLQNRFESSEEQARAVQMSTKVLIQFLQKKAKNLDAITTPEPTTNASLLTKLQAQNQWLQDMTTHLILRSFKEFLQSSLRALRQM

rat IL-6 = target: T3, rat IL-6 (rat, UniProt P20607 25-211)
T3 construct: also called IL-6 from rat
T3 sequence (looked up): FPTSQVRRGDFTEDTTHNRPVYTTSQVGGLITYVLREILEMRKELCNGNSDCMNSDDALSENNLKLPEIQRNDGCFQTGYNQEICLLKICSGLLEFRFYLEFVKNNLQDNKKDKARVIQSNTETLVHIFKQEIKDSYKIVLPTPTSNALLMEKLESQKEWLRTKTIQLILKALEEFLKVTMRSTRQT

mouse IL-6 = target: T4, mouse IL-6 (mouse, UniProt P08505 25-211)
T4 construct: also called IL-6 from mouse
T4 sequence (looked up): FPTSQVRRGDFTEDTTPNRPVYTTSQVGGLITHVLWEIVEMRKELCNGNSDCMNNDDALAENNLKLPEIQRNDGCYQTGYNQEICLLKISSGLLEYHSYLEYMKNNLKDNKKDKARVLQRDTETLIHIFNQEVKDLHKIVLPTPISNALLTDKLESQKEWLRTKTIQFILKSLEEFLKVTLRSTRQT

B1: antibody Ab1 (antibody, human IgG1, kappa, N297A, V domains shown)
VH: EVQLVESGGGLVQPGGSLRLSCAASGFSLSNYYVTWVRQAPGKGLEWVGIIYGSDETAYATSAIGRFTISRDNSKNTLYLQMNSLRAEDTAVYYCARDDSSDWDAKFNLWGQGTLVTVSS
VL: AIQMTQSPSSLSASVGDRVTITCQASQSINNELSWYQQKPGKAPKLLIYRASTLASGVPSRFSGSGSGTDFTLTISSLQPDDFATYYCQQGYSLRNIDNAFGGGTKVEIKR
notes: It is a humanized (from rabbit), full length, aglycosylated antibody with human kappa and IgG gamma-1 constant regions, produced in Pichia pastoris; also called Ab1 monoclonal antibody; anti-IL-6 antibody Ab1
Kd (human IL-6): 4 pM | Kd (cynomolgus monkey IL-6): 0.031 nM | Kd (rat IL-6): 1.4 nM | Kd (mouse IL-6): 0.4 nM
